Assays:
Flag-FUS-R521H (human) = Flag-FUS-R521H (human) (UniProt P35637); test: proximity ligation; PLA of Flag vs XRCC1, LigIII or PARP-1 in GO-treated SH-SY5Y cells expressing Flag-tagged WT or R521H FUS
[1] = biological target: XRCC1/LigIII complex, purified from insect cells (UniProt P18887 1-633; P49916 88-1009); test: cell-based or functional assay
[2] = biological target: T1, PARP-1, His-tag protein, purified (human, UniProt P09874 1-1014); test: pull-down; GST-FUS with the partner at 4 C overnight on glutathione affinity gel, washed three times with TEN buffer (20 mM Tris-HCl pH 7.4, 0.1 mM EDTA, 100 mM NaCl), immunoblot; for XRCC1 also in the presence of PARP-1 and NAD+ (PARylation enhanced the interaction); details: both partners purified
T1 construct: human PARP1, recombinant; also called human PARP1 purified protein; source: expressed as His-tag protein, purified (Ni-agarose column, cation exchange)
T1 sequence (P09874 whole entry): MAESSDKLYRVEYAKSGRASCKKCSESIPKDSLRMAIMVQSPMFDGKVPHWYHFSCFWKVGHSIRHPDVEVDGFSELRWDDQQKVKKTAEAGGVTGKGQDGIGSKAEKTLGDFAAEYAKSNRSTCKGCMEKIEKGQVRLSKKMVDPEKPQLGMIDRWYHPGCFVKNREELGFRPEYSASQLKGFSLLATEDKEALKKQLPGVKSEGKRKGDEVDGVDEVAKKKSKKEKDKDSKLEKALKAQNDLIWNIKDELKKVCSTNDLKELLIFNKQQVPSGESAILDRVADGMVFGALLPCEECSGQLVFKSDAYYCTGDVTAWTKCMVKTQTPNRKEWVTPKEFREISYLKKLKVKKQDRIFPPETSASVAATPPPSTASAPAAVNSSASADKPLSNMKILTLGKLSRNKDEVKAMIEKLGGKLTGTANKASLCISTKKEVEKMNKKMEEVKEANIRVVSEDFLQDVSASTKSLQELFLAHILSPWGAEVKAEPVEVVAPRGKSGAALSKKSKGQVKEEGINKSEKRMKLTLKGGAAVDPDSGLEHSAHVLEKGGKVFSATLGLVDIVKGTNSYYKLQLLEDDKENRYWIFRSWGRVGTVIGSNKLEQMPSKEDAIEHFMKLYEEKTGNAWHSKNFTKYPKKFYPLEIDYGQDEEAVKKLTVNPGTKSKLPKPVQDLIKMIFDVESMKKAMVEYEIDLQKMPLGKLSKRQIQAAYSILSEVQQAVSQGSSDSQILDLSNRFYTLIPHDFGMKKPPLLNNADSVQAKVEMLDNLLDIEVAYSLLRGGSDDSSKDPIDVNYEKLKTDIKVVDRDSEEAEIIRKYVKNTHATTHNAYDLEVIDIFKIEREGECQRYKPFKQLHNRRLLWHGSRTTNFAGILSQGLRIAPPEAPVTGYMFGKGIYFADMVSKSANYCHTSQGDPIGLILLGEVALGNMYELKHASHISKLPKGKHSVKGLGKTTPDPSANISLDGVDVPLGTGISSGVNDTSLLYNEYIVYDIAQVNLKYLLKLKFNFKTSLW

Sequence of XRCC1/LigIII complex, purified from insect cells (P18887 whole entry, chain 1 of 2): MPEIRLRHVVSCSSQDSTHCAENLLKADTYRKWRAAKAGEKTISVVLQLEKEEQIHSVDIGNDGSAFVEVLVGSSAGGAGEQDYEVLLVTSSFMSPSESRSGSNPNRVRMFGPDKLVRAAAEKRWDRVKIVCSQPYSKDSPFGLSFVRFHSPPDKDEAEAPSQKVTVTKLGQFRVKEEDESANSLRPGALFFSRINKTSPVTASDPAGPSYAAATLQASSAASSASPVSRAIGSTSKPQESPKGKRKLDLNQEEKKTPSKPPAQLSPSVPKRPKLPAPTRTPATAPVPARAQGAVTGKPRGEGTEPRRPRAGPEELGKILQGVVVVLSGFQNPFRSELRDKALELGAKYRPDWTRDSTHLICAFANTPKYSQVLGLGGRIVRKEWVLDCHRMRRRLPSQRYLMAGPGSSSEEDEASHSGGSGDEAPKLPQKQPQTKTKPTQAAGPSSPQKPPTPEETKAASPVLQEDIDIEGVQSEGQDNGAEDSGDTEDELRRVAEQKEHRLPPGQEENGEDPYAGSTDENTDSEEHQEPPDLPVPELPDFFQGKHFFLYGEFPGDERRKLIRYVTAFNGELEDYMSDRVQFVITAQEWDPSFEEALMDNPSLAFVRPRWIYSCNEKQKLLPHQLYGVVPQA
Sequence of XRCC1/LigIII complex, purified from insect cells (P49916 88-1009, chain 2 of 2): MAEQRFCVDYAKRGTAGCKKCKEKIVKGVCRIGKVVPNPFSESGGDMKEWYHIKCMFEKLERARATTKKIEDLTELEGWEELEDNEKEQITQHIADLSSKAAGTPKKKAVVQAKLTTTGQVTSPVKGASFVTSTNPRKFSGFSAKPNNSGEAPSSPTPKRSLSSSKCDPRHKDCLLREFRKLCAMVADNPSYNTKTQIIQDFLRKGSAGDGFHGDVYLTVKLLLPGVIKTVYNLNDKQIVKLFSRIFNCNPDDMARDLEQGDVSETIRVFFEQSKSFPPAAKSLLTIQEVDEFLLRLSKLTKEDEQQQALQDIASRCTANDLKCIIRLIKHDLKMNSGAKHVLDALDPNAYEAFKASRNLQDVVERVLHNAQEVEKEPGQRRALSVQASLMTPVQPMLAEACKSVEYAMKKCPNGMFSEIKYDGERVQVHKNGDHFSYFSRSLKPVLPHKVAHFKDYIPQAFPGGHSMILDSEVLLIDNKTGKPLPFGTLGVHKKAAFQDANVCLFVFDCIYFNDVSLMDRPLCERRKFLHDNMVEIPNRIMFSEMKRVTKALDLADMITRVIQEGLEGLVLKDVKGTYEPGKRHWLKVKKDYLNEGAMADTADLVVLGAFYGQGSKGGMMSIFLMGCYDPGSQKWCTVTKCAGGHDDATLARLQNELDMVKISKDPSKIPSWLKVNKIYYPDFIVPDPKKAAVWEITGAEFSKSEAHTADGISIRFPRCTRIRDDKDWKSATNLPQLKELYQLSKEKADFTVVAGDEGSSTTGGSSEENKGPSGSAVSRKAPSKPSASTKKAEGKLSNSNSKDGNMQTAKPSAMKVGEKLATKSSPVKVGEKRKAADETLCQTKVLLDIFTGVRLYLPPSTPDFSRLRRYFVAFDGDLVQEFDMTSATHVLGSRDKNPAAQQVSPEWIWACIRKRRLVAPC

percent reduction of PLA association against WT FUS (Flag-FUS-R521H (human)) [%]	catalytic efficiency of LigIII in the nick ligation reaction of XRCC1/LigIII with or without FUS [1] [fold]	in vitro DNA nick ligation by XRCC1/LigIII complex (100 f.moles) with FUS 10-500 f.moles; fold change in ligated product [1] [fold]	binding result [2]	Molecule
> 80	–	–	–	DNA Ligase IIIalpha (LigIII), endogenous (from UniProt P49916 43-1009) (enzyme)
–	4	~5	binds	GST-FUS (natural protein, human, UniProt P35637 1-526, looked up, FUS in pGEX6P-1, plasmid purchased from Addgene; The FUS of the ligation assays is named only 'purified FUS'; also called purified FUS; recombinant FUS; source: E. coli BL21, purified (glutathione-Sepharose 4B)) MASNDYTQQATQSYGAYPTQPGQGYSQQSSQPYGQQSYSGYSQSTDTSGYGQSSYSSYGQSQNTGYGTQSTPQGYGSTGGYGSSQSSQSSYGQQSSYPGYGQQPAPSSTSGSYGSSSQSSSYGQPQSGSYSQQPSYGGQQQSYGQQQSYNPPQGYGQQNQYNSSSGGGGGGGGGGNYGQDQSSMSSGGGSGGGYGNQDQSGGGGSGGYGQQDRGGRGRGGSGGGGGGGGGGYNRSSGGYEPRGRGGGRGGRGGMGGSDRGGFNKFGGPRDQGSRHDSEQDNSDNNTIFVQGLGENVTIESVADYFKQIGIIKTNKKTGQPMINLYTDRETGKLKGEATVSFDDPPSAKAAIDWFDGKEFSGNPIKVSFATRRADFNRGGGNGRGGRGRGGPMGRGGYGGGGSGGGGRGGFPSGGGGGGGQQRAGDWKCPNPTCENMNFSWRNECNQCKAPKPDGPGGGPGGSHMGGNYGDDRRGGRGGYDRGGYRGRGGDRGGFRGGRGGGDRGGFGPGKMDSRGEHRQDRRERPY
